Laboratory results from the nanobody polyreactivity screen of Harvey et al. (2022).

Test: yeast display, Sf9 membrane polyspecificity reagent, FACS + sequencing; frameworks hold sequencing errors
Summary of the method: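 Galactose-induced (36–48 hours) yeast carrying a synthetic nanobody display library were exposed to 10% biotinylated, detergent-solubilized Sf9 membrane reagent at 4 °C for 1 hour. FACS followed streptavidin microbead enrichment, using low and high (top ~1%) gates for expression (anti-HA) and reagent binding (streptavidin). Colony PCR, MiSeq 2 × 250 sequencing and CDR-length filtering followed. Labels for polyreactivity reflect the gate of origin.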

Sequence	polyreactivity (PSR sort gate)
QVQLVESGGGLVQAGGSLRLSCAASGSTLFAYAMGWYRQAPGKERELVAAITSGASTNCADSVKGRFTISRDNAKNTVYLQMNSLKPEDTAVYYCAKDVSGTNPDYDYWGQGTQVTVSS	low polyreactivity
QVQLVESGGGLVQAGGSLRLSCAASGFTLYYYTMGWYRQAPGKERELVASITGGGTTNYADSVKGRFTISRDNAKNTVYLQMNSLKPEDTAVYYCAKGYGASNDPGYVRKRYGYWGQGTQVTVSS	low polyreactivity
QVQLVESGGGLVQAGGSLRLTCAASGRTFYVNAMGWYRQAPGKEREFVAAISRRGGSTYYADSVKGRFTISRDNAKNTVYLQMNCLKPEDTAVYYCNAAYSSRYDYWGQGTQVTVSS	high polyreactivity
QVQLVESGGGLVQAGGSLRLSCAASGRTFAIYAMGWYRQAPGKERELVAAISGSGGSTYYADSVKGRFTISRDNAKNTVYLQMNSLKPEDTAVYYCAKRVRGHRYDYWGQGTQVTVSS	high polyreactivity
QVQLVESGGGLVQAGGSLRLSCAASGSTFVPYAMGWYRQAPGKERELVAAISQSGGSTYYADSVKGRYTISRDNAKNTVYLQMTSLKPEYTAVYYCNVDQFRYPEYDYWGQGTQVTVSS	high polyreactivity
QVQLVESGGGLVQAGGSLRLSSAASGRIFAGNAMGWYRQAPGKERELVAVISKGGGRTYYADSVKGRFTISRDNAKNTVYLQMNSLKPEDTAVYDCDAEGSYWFRRYGYWGQGTQVTVSS	high polyreactivity
QVQLVESGGGLVQAGGSLRLSCAASGRTFNPYTMGWYRQAPGKEREFVATIRKSSGGTYYADSVKGRFTISRDTAKNTVYLQMNSLKPEDTAVYYCAAVGNGGMDYWGQGTQVTVSS	low polyreactivity
QVQLVESGGGLVQAGGSLRLSCAASGRIFRGNAMGWYRQAPGKERELVARITGNDGDTYYADSVKGRFTISRDNAKNTVYLQMNSLKPEDTAVYYCATDTSSYRRRYYYWGQGTQVTVSS	low polyreactivity
QVQLVESGGGLVQAGGSLRLSCAASGSTFPYNAMGWYRQAPGKERELVADISGDSGSTYYADSVKGRFTISRDNAKNTVYLQMNSLKPEDTAVYYCAGEGVHYAGDYGTGYDYWGQGTQVTVSS	low polyreactivity
QEQLQESGGGLVQAGGSLRLSCAAIGSNIPTIYMGWYRHAPGKEREFVAAIGKGCSTYYADSVKGRFTISRDNALKTVYLQMNSLIPEDNAVYYCAFDPYASQDLAYWGQGTLVTVSS	low polyreactivity
QVQLVESGGGLVQAGGSLRLSCAASGSTFWKYAMGWYRQAPGKEREFVAAITRSGGNTYYADSVKGRFTISRDNAKNTVYLQMNSLKPEDTAVYYCAKVYKLITSYRGFGYWGQGTQVTVSS	high polyreactivity
QVQLVESGGGLVQAGGSLRLSCAASRFTFRRNAMGWYRQAPGKERELVAAITYNGGTTYYADSVKGRFTISRDNAKNTVYLQMNSLKPEDTAVYYCNAPYGRQGYDYWGQGTQVTVSS	low polyreactivity
QVQLVESGGGLVQAGGSLRLSCAASGSIFNWYAMGWYRKAPGKERELVAAIRSGGNTKYADSVKGRFTISRDNAKNTVYLQMTSLKPEDTAVYYCAAGVYHRRLEYYYWGQGSQVTVSS	low polyreactivity
QVQLVESGGGLVQAGGSLRLSCAASGSIFYFNAMGWYRQAPGKERELVAAINISGSSTSYADSVKGRFTISRDNAKNTVYLQMNSLKPEDTAVYYCYAGPYTYLHWNQAISRYYYWGQGTQVTVSS	low polyreactivity
QVQLEESGGGLVQAGGSLRLSCAASGSIFVGYALGWYIQAPGKERELVASITTRGGSTHYADYVKGRFTISRDNAKNTVYLQMNSLKPEDTAVYYCAADSLSNGVLQYLPGYDYWGQGTQVTVSS	low polyreactivity
IIQAGGSLRLSCAASVRTFSGYAMGWYRQAPGKERELIADITSGGSTYYADSVKGRFTISRDNAKNTVYLQMNSLKPEDTAVFYCCRDDRLAGDYWGQGTQVNVSS	low polyreactivity
QVQLVESGGGLVQAGGSLRLSCAASGIIFKYYAMGWYRQAPGKERELVAAISRSSGSTYYADSVKGRFTISRDNAKNTVYLQMNSLKPEDTAVYYCAASGWPQKYDYWGQGTQVTVSS	high polyreactivity
QVQLVESAGGLVQAGGSLRLSCAASGICAVYARGWYRQAPGKERELVAAITLSGGSTSYADSVKGRFTISRDNAKNTVYLQMNSLNPAATEVYYCAVLIRYPYYYWGQGTQVTVSS	low polyreactivity
QVQLVESGGGLVQAGGSLRLSCAASGSTFYLYAMGWYRQAPGKERELVAAISWSGGDTYYADSVKGRFTISRDNANNTVYLQMTSLKPEDSAVYYCAAEITYSYPGSPRRRDYWGQGTQVTVSS	low polyreactivity
QVQLVESGGGLVQAGGSLRLSCAASGRIFKGYAMGWYRQAPGKERELVAAITWRGGTTYYADSVKGRFTISRDNAKNTVYLQMNSLKPEDTAVYYCATTRYPRSYDYYYWGQGTQVTVSS	high polyreactivity
QVQLVESGGGLVQAGGSLRLSCAASGSIFGYNAMGWYRQAPGKERELVAAISYSGGSTYYADSVKWRFTISRDNAKNTVYLQMNSLKPEDTAVYYCNKYIRRYLIYGSWGQGTQVTVSS	high polyreactivity
QVQLVESGGGLVQAGGSLRLSCAASGRIFAPYAMGWYRQAPGKEWQLVAAIRTSGGRTYYADSVKGRFTISRDNAKNTVYLQMNSLKPEDSAVYYCAPLAWSTGRTTTVYDYWGLGTQVTVSS	high polyreactivity

Sequence	polyreactivity (PSR sort gate)
QVQLVESGGGLVQAGGSLRLSCAASGRILPRNAMGWYRQAPGKERELVAGISSDGSPNYADSVKGRFTISRDKAKNTVYLQMNSLNPEDTAVYYCYADYLFYAFDYWGQGTQVTVSS	low polyreactivity
QVQLVESGGGLVQAGGSLSLSCDASGSTFYYNAMGWYRQAPGKERELVAAITFTGGSTYADSVKGRFTISRDNAKNTVYLQMNSLKPEDTAVYYCSATIQGHDYLGTGYDYWGQGTQVTVSS	low polyreactivity
QVQLVESGGGLVQAGGSHRLSCAASGSTVGRNAMGWYGQAPGKERELVAAITASGGTTYYADSVKGRFTISRDNAKNTVYLQMNSLKPEDTAVYYCARAGHFSFKYDYWGQGTQVTVSS	low polyreactivity
QVQLVESGGGLVQAGGSLRLSCAASGSTFAIYAMGWDRGAPGKEREVVAAISWRTGSTYYADSVKGRFTISRDNAKNTVYLQMNSLKPEDTAVYYCAAEFWFFAGWAYEYWGHGTQVTVSS	high polyreactivity
QVQLVESGGGLVQAGGSLRLSCAASGSTLYLNAMGWYRQAPGKERELDASISNGVNTNYADSVKGRFTISRDNAKNTVYLLMNSLKPEDTAVYYCAKEKRFQKTVHRKPAYDYWGQGTQVTVSS	low polyreactivity
QVQLVESGGGLVQAGGSLRLSCAASGFTFGVYAMGWYRQAPGKERELVAAISSTGGSTYYADSVKGRFRISRDNAKNTVYLQMKSLKPEDTAVYYCAADPYPEYIRYLPGVVYWGQGTQVTVSS	low polyreactivity
QVQLVESGGGLVQAGGSLRLSCAASGRTFWSYAMGWYRQAPGKERELVAAIRTSDGITYYADSVKGRFTISRDNAKNTVYLQMNSLKPEDTAVYYCARDIRQYILYGRGDYWGQGTQVTVSS	low polyreactivity
QVQLVESGGGLVQAGGSLRLSCAASGSTLYPYAMGWYRQAPGKEWELVAVITLRGGSTYYADSVKGRFTISRDNAKNSVSVQMKSLKPEDTAVYYCAADPRKVHSDDYDYWGQGTQVNVSS	high polyreactivity
QVQLVESGGGLVQAGGSLRLSCAASGRIFDKYTMGWYRQAPGKERELVATITRGGVSMYYADSVKGRFTISRDNAKNTVYLQMNSLKPEDTAVYYCNAVWRLRVRYGYWGQGTQVTVSA	high polyreactivity
QVQLVESGGGLVQAGGSLRLSCAASGSIFNTYAMGWYRQAPGKEREFVASISRSGGSTRYADSVKGRFTISRDNAKNTVYLQMNSLKPEDTAVYYCAARVPRGHVTYDYWGQGTQVTVSS	high polyreactivity
QVQLVDSGGGLVQAGGSLRLSCASTGSIYRYAIGWNRQSPGKERELVAAINFNGGRTYYADSVKGRFTISSDNAKNTVYLQMNSLKPEDTAVYYCAAVRSSNQGGFDYWGQGTLVTVSS	high polyreactivity
QVQLVESGGGLVQAGGRLRLSCAASGSTIRTYARGWYRQAPGKERELVAAITNSDGSTYYADSVKGRFTISRDNAKNTVYLQMYSLKPEDTAVYYCAAYYYPLGYDYWGQGTQVTVSS	low polyreactivity
QVQLVESGGGLVQAGGSLRLSCAASGRTFWYYAMGWYRQSPGKERELVAVITSGSSTYYADSVKGRFTISRDNAKNTVYLQMNSLKPEDTAVYYCNKLGRIQYDYWGQGTQVTVSS	high polyreactivity
QVQLVESGGGLVQAGGSLRLSCAASGFIFHLYGMGWYRQAPGKERELVAAISSGGRTYYADSVKGRFTISRDNAKNTVYLQMNSLKPEDTAVYYCAVYVAYLYSYYYWGQGTQVTVSS	low polyreactivity
QVQLVESGGGLVQAGGSLRLSCAASGLTISYYAMGWYRQAPGKERELVAAISTDSSTNYADSVKGRFTISRDNAKNTVYLQMISLKPEDTAVYYCAAVVVYGPIHGYWGQGTQVTVSS	low polyreactivity
QVQLVDSGGGLVQAGGSLRLSCAASGSTFLFNAMGWYRQAPGNVREVVAGISSSGGSTHYADSVKGRFTISRDNAKNTVYLQMNSLKPEDTAVYYCNAQQYLPSEGDYWGQGTQVTVSS	low polyreactivity
QVQRVESGGGLVQAGGSLRLSCAASGRTFAYYVMGWYRQAPGKERELVAAISWSAGSTYYADSVKGRFTISRDNAKNTVYLQMNSLKPEDTAVYYCAADYRFRYEYWGQGTQVTVSS	low polyreactivity
QVQLVESGRGLVQAGGSLRLSCAASGYIFVYNAMGWYRQAPGKERELVAAITDGGGSTYADSVKGRFTISRDNAKNTVYLQMMSLNPEDTADYYCAARYSDTTWYVLYYYWGQGTQVTVSS	low polyreactivity
QVQLVESGGGLVQAGGSLRLSCAASGSNFNYYTMGWYRQAPGKERELVAAITDSGGSTYYADSVMGRFTISRDNAKNTVYLQMNSLIPEDTAVYYCAAAVPELYEVRYHADYWGQGTQVTVST	low polyreactivity
QVQLQESGGGLVQAGGSLRLSCASSGTISPLPAMGWYRQAPGKEREYVAGIDTGAITNYADSVKGRFTISRDNAKNTVYLQMNSLQPEDTAVYYCAVFPAAYDYYESYYTYWGQGTQVTVSS	low polyreactivity
PVQLVESGGGLVQAGGSLRLSCAACGSIIAGYAMGWYRQAPGKERELVAAISWSGGGTYYADSVKGRFTISRDNAKNTVYLQMNSLKPEDTAVYYCNAYGYRHRGNGYWGQGTQVTVSS	high polyreactivity
